Assay results reported in patent US20180118814A1 (IGM BIOSCIENCES, published 2018).

T1: HBsAg (Prospec HBS-872) (hepatitis B virus)
T1 chain: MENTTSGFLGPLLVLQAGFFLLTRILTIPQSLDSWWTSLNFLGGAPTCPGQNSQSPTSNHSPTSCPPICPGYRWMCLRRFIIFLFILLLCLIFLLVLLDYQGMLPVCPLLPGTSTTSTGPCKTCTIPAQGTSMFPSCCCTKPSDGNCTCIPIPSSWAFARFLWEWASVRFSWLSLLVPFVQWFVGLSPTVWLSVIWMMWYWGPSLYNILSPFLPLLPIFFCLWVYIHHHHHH

B1: HBV23MJ (antibody)
heavy: EVQVLESGGGLVQPGGSLRLSCAASGFRFSSYAMSWVRQAPGKGLEWVSGISGTGENTYYADSVKGRFTISRDNSKNTLYVQMNSLRAEDTAVYYCAKDAILGSGHPWYFHVWGRGTLVTVSSGSASAPTLFPLVSCENSPSDTSSVAVGCLAQDFLPDSITFSWKYKNNSDISSTRGFPSVLRGGKYAATSQVLLPSKDVMQGTDEHVVCKVQHPNGNKEKNVPLPVIAELPPKVSVFVPPRDGFFGNPRKSKLICQATGFSPRQIQVSWLREGKQVGSGVTTDQVQAEAKESGPTTYKVTSTLTIKESDWLSQSMFTCRVDHRGLTFQQNASSMCVPDQDTAIRVFAIPPSFASIFLTKSTKLTCLVTDLTTYDSVTISWTRQNGEAVKTHTNISESHPNATFSAVGEASICEDDWNSGERFTCTVTHTDLPSPLKQTISRPKGVALHRPDVYLLPPAREQLNLRESATITCLVTGFSPADVFVQWMQRGQPLSPEKYVTSAPMPEPQAPGRYFAHSILTVSEEEWNTGETYTCVVAHEALPNRVTERTVDKSTGKPTLYNVSLVMSDTAGTCY
light: SYVLTQPPSVSVAPGQTARMTCGGNNIGSESVHWFQQKPGQAPVLVVYDDSDRPSGIPERFSGSNSGNTATLTISRVEAGDEADYYCQVWDSSSDHAVFGGGTQLTVLGQPKAAPSVTLFPPSSEELQANKATLVCLISDFYPGAVTVAWKADSSPVKAGVETTTPSKQSNNKYAASSYLSLTPEQWKSHRSYSCQVTHEGSTVEKTVAPTECS
chain: not shown
notes: Human IgM with human J-chain; also called HBV23 anti-HBsAg IgM+human J-chain
B2: HBV23G (antibody, human IgG1, lambda, V domains shown)
VH: EVQVLESGGGLVQPGGSLRLSCAASGFRFSSYAMSWVRQAPGKGLEWVSGISGTGENTYYADSVKGRFTISRDNSKNTLYVQMNSLRAEDTAVYYCAKDAILGSGHPWYFHVWGRGTLVTVSS
VL: SYVLTQPPSVSVAPGQTARMTCGGNNIGSESVHWFQQKPGQAPVLVVYDDSDRPSGIPERFSGSNSGNTATLTISRVEAGDEADYYCQVWDSSSDHAVFGGGTQLTVLG
notes: also called IgG counterpart (HBV23G); human IgG antibody provided in Cerino et al. (2015)

Target: T1, HBsAg (Prospec HBS-872)
Assay: ELISA, plate coated with HBsAg (Prospec HBS-872), anti-human lambda-HRP detection, weight concentrations

Binder | EC50
B1 | 0.064 mg/L
B2 | 0.03 mg/L
